This is an account of results in patent EP4786489A1, “IL-22 MUTANT, PREPARATION METHOD THEREFOR, AND USE THEREOF” (Nanjing Novoacine Biotechnology Co., Ltd., priority 2023, dated 2025).

Series [1] relates to SAA. Put plainly: Mouse PD preference study: plasma SAA. Format: in vivo, mice. Particulars: at equivalent or superior Reg3β Cmax: 60K-PEG-IL22-D109C 0.1 mg/kg vs 60K-PEG-IL22-P120C 0.3 mg/kg vs IL-22-Fc 1 mg/kg, s.c. On the procedure:
Based on the in vitro preference results and preliminary PD screening results, the molecules 60k-PEG-IL22-D109C and 60k-PEG-IL22-P120C were selected. PD testing was performed in three mice per dose group at different dose levels according to the method described in Example 14, including the pharmacodynamic-related molecule Reg3β and the inflammation-related molecule SAA. The control was IL-22-Fc. Blood samples were collected before dosing and at 4, 24, 48, 72, 96, 144, 192, 264, and 336 hours after dosing. Plasma was separated using anticoagulated blood samples. For the control molecules wt IL-22 and hB3-his, samples were collected only up to 96 hours.
The detection method for SAA was as follows: a kit containing detecting antibody pairs and positive controls (Abcam, Ab216059) was used to detect SAA concentrations in appropriately diluted plasma samples. The assay was performed according to the manufacturer's instructions. Sa-HRP (Pierce 21126) was used for conjugation. After washing, tetramethylbenzidine peroxidase substrate (TMB, Surmodics, TMBS-1000-01) was added for color development for 10 minutes. The reaction was terminated with 2 M sulfuric acid, and the plate was read at 450 nm with 630 nm as the reference using a microplate reader. SAA was measured before dosing and at 24, 48, 72, 96, and 144 hours after dosing. The original SAA concentration in each sample was calculated. […]

The subject of series [2] is ear skin inflammation. Particulars: mouse, in vivo.
Protocol: Balb/C mice were used for induction of ear skin inflammation. By repeated inner-ear injections of the test candidates, changes in ear swelling thickness after injection were measured to reflect the ability of the test candidates to induce local inflammatory responses in the skin.
On Days 0, 1, 2 and 4, 5 µL of PBS solution containing the indicated amount of each test candidate was injected into the inner side of both ears of each mouse. Ear thickness was measured daily using a micrometer, and the increase of ear thickness relative to Day 0 (delta thickness) on each day after injection was calculated.
Series [3] in a line: Mouse PK, plasma concentration by ELISA. Format: in vivo. Particulars: single s.c. 1 mg/kg, male Balb/C mice. The protocol:
Male Balb/C mice (n = 4 per group) were administered a single subcutaneous injection at a dose of 1 mg/kg. Blood samples were collected before dosing and at 4 (no samples were collected at this time point for 60k-PEG-IL22-D109C and 60k-PEG-IL22-P120C), 8, 24, […], 48, 72, 96, and 120 hours after dosing. Anticoagulated blood was used to prepare plasma.
The concentrations of each test candidate in plasma were quantified by ELISA. Anti-IL22 Antibody (Sino Biological, 13059-MM24), diluted in PBS to 2 µg/mL, was used for coating. Standard curves of each test candidate and plasma samples were diluted to fall within the linear range of detection. Recombinant Anti-IL22 Antibody (Sino Biological, 13059-R034-H) was used for detection. The original concentration of each test candidate in the samples was calculated using a four-parameter fit of the standard curve for each test candidate. Pharmacokinetic parameters of each test candidate in mouse plasma were analyzed (Figure 12). Table 13. Dosing information for the mouse PK study
A general note: An ELISA detects its analyte on a solid surface through an enzyme-linked reagent.

Series [4] concerns DSS-induced mouse acute colitis model. Put plainly: Mouse DSS-induced colitis efficacy model. In kind it is in vivo, Balb/C mice. An excerpt: Balb/C mice were used to evaluate efficacy in a DSS-induced mouse acute colitis model. DSS refers to Dextran Sulfate Sodium Salt (MW: 36,000-50,000). When added to drinking water at an appropriate concentration, DSS disrupts intestinal epithelial cells and induces acute inflammatory bowel disease (IBD) in mice. Therefore, a 4% DSS-induced mouse IBD model was used to evaluate the potential therapeutic efficacy of the test candidates.
Male Balb/C mice were allowed free access to drinking water containing 4% DSS until the average body weight of the model group decreased by approximately 15%. Fresh drinking water was then provided, followed by a 2-day recovery period. Body weight and the severity of loose stool/hematochezia for each mouse were monitored throughout the study (Figure 13), and a composite Disease Activity Index (DAI) was evaluated (Figure 14). At the endpoint, the colon of each mouse was collected and its length measured (Figure 15). The colons were photographed, rolled into a Swiss-roll configuration, fixed in 4% paraformaldehyde, dehydrated, embedded in paraffin, sectioned, and subjected to H&E staining (Figures 17-18). Histological scoring was performed on tissue morphology(Figure 16).
The dosing regimen of the test candidates was as follows (the day of DSS modeling was defined as D1, the previous day as D-1, and so on). Table 15. Dosing information for the mouse DSS-induced colitis model study
Paraffin sections of colon tissues were subjected to H&E staining and histopathological analysis. According to the actual severity of the lesions, the following scoring criteria were used: minimal (1 point), mild (2 points), moderate (3 points), and severe (4 points). Lesion area (%) scoring criteria were defined as: ≥50% (4 points), 25%-50% (3 points), 10%-25% (2 points), and ≤10% (1 point). Inflammation depth scoring criteria were defined as: epithelium (1 point), lamina propria (2 points), and muscularis mucosae (3 points). No lesion was recorded as "-". The score was calculated by summing the scores from the above three dimensions.

For series [5], the system named is Reg3β. Put plainly: Mouse PD: plasma Reg3β after single administration (ELISA). In kind it is in vivo. Set-up: Reg3βCmax: unit not given here. The conditions noted are these: for Reg3βCmax: mouse plasma, wt IL-22 i.p. The protocol: The ELISA method was used to determine the baseline levels and post-dose changes of the biomarker Reg3β in plasma samples before and after administration of different test candidates.
For the preferable test candidates, one mouse per dose group was subcutaneously injected at 0.5, 1, or 3 mg/kg. The control molecules were IL-22-Fc, administered subcutaneously at 0.3 and 1 mg/kg, and wt IL-22, administered intraperitoneally at the corresponding doses.
Approximately 40 µL of orbital blood was collected with anticoagulation on the day before dosing and at 4, 24, 48, 96, 144, 192, 264, 336, and 408 hours after dosing, followed by plasma separation. ELISA plates were coated overnight at 4°C with 1 µg/mL anti-Reg3β (Sino Biological, 51153-R065) dissolved in PBS. Mouse Reg3β (Sino Biological, 51153-M08H) was serially diluted to generate a positive control standard curve. Plasma samples were appropriately diluted to fall within the linear range of the standard curve. After blocking, samples were added and incubated for 2 hours. Incubation was then performed with the secondary antibody sheep anti-mouse Reg3β (R&D Systems, AF5110-SP) and HRP-conjugated antibody (HRP-Rabbit anti-sheep IgG H&L, Abcam, Ab97130). After final washing, tetramethylbenzidine peroxidase substrate (TMB, Surmodics, TMBS-1000-01) was added for color development for 10 minutes. The reaction was terminated with 2 M sulfuric acid, and absorbance was read at 450 nm with 630 nm as reference using a microplate reader. The original concentrations of Reg3β in each sample were calculated. Concentration versus time curves were plotted (Figure 9).

B1: 60K-PEG-IL22-P120C: IL-22 cysteine mutant, conjugation site 87, PEG-maleimide 60kD (conjugate)
chain: APISSHCRLDKSNFQQPYITNRTFMLAKEASLADNNTDVRLIGEKLFHGVSMSERCYLMKQVLNFTLEEVLFPQSDRFQPYMQEVVCFLARLSNRLSTCHIEGDDLHIQRNVQKLKDTVKKLGESGEIKAIGELDLLFMSLRNACI
In general, Cmax refers to the maximum level reached in the sampled fluid or tissue. As a reminder, the MRT is the average time that molecules of a dose stay in the body. For the molecule B1, the “SAA Cmax compared with IL-22-Fc” value in series [1] is listed as “significantly lower”. Also, in series [2], the “equivalent dose required to induce a comparable overall increase in ear thickness, relative to IL-22-Fc” value is recorded as “approximately 8 fold”. Besides, in series [3], the “AUClast” value stood at 105.2029 µg·h/mL, the “Cmax” value was 4184.95 ng/mL, the “MRT” value is listed as 20.17 h and the “T1/2” value turned out to be 11.62 h. Moreover, the “efficacy compared with 0.03 mg/kg IL-22-Fc (Group G6)” value in series [4] (0.1 mg/kg (Group G4), body weight, DAI, colon length, histological scoring) is “superior efficacy”. Besides, in series [4] (0.1 mg/kg s.c., days 4 and 6 (G4)), the “colon tissue morphology (H&E histology)” value is reported as “relatively intact”. In addition, the “efficacy dose difference relative to IL-22-Fc” value in series [4] (0.1 mg/kg vs 0.03 mg/kg) is on record as 3 fold. Besides, in series [4] (body weight, DAI, colon length, histological scoring), the “efficacy in the mouse DSS-induced acute colitis model” value is “clear efficacy”. The “Normalized Cmax ratio of Reg3β (relative to IL-22-Fc)” value in series [5] (0.5mg/kg single dose vs IL-22-Fc 0.3 mg/kg) worked out at 265%. Besides, the Reg3βCmax in series [5] (0.5mg/kg single dose, test candidates s.c., one mouse per dose group) stood at 41.8. Besides, the “Normalized Cmax ratio of Reg3β (relative to IL-22-Fc)” value in series [5] (1mg/kg single dose) came out at 133%. The molecule also displayed a Reg3βCmax in series [5] (1mg/kg single dose, s.c.) of 43.9. The same molecule came in with a Reg3βCmax in series [5] (3mg/kg single dose, s.c.) of 43.3. Also, the “peak concentrations of Reg3β stimulation compared with IL-22-Fc” value in series [5] (similar (0.5 mg/kg vs. 0.3 mg/kg) or identical (1 mg/kg) doses) is listed as “higher peak concentrations”.
